T1: human lysozyme (human, UniProt P61626 19-148)
T1 sequence (looked up): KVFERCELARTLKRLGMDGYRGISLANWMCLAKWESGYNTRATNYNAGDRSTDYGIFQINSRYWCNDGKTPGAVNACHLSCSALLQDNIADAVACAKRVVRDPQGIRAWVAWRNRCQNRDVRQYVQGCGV

T2: Murine HTT antigen (murine)
T2 construct: antigen of the murine HTT direct ELISA; also called murine HTT protein
T2 chain: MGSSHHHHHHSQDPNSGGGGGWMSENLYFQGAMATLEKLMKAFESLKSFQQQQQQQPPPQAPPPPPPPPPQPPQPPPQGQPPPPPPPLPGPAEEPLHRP


How the values were obtained:
[1] = molecular target: T3, Mutant Human HTT Exon 1 48Q (GST) (human); assay: HTT sandwich ELISA, biological repeat 1
T3 construct: recombinant His- and GST-tagged fusion; also called HTT Exon 1 Q48; 48Q HTT Exon-1
T3 sequence (chain, as listed by the source mutant limits assumed): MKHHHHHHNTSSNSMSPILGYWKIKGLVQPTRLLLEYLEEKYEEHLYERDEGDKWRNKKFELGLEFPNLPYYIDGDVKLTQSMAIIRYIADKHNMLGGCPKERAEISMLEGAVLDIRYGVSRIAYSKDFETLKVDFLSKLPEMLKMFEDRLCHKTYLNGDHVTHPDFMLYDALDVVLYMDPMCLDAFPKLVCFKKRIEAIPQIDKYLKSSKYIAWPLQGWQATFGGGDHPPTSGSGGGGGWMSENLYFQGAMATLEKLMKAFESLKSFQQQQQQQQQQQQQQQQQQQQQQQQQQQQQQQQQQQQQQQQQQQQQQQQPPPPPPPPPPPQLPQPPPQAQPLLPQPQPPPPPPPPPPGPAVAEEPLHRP

[2] = molecular target: T4, CACNA1A (human, UniProt O00555 1-2506); assay: Retrogenix cell microarray, HEK293 cells
T4 construct: whole, on cells; also called Another poly Q protein
T4 sequence (O00555 whole entry): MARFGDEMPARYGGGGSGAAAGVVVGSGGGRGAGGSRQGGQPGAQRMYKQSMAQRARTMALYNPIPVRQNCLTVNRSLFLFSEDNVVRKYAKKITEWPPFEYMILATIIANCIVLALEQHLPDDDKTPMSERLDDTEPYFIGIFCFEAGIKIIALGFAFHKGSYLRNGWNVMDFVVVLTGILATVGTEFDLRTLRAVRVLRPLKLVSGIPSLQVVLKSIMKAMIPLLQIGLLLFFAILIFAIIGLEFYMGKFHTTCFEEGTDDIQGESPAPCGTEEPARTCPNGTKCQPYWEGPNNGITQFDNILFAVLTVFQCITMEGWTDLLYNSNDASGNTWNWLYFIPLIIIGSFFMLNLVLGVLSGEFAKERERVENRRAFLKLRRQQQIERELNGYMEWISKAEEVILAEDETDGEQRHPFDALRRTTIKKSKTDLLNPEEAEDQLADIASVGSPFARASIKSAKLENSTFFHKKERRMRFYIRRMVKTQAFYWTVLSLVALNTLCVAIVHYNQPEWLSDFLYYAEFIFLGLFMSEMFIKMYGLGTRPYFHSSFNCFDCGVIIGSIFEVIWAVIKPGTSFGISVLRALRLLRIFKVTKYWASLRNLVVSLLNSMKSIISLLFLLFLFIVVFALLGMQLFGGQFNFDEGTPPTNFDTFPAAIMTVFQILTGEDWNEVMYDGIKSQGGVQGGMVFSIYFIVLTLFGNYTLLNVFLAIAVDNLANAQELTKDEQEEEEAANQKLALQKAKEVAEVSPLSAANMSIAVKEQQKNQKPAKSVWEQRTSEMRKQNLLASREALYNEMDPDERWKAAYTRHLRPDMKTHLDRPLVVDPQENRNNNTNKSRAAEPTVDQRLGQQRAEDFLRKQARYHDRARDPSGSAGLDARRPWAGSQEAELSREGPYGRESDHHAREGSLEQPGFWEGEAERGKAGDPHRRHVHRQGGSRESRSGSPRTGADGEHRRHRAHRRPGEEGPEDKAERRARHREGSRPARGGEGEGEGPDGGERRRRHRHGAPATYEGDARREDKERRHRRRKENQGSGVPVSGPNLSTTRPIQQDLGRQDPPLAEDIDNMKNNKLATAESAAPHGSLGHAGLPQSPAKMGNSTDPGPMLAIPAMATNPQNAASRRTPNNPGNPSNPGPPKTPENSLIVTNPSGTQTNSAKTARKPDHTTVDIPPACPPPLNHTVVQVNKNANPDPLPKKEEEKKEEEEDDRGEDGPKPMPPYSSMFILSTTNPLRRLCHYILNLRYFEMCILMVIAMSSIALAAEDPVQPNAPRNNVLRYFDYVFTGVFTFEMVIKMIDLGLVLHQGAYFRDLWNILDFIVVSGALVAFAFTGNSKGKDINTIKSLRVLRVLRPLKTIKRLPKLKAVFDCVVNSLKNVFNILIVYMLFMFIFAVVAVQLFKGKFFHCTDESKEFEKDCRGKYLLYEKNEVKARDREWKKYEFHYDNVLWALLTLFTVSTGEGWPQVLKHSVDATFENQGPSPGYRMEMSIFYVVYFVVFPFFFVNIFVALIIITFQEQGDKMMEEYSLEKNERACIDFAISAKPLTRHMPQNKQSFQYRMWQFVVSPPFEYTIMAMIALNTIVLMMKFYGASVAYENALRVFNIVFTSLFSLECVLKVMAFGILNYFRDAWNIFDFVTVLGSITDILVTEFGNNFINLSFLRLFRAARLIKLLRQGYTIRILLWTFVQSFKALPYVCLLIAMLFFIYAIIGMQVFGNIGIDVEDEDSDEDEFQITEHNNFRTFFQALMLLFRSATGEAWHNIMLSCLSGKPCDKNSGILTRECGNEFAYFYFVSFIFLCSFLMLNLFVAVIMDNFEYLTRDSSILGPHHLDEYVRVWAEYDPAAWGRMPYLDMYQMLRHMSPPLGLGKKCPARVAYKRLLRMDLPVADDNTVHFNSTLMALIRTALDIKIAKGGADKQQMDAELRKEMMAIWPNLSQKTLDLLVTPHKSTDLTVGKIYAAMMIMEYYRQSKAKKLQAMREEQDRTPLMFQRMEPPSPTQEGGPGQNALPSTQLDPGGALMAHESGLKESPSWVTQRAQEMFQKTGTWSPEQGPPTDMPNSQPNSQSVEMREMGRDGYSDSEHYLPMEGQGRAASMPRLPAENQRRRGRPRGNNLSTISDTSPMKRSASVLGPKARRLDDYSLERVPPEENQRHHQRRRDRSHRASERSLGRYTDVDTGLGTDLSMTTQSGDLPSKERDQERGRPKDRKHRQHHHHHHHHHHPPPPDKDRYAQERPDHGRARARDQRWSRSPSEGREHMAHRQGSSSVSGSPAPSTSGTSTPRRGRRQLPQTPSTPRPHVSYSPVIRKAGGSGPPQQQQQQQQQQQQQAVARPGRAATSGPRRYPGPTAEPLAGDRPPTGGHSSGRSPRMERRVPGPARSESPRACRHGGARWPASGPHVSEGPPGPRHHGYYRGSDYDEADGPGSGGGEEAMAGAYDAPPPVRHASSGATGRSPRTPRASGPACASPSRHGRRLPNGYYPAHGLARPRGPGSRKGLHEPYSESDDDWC

[3] = molecular target: T5, WT Human HTT Exon 1 25Q (GST) (human); assay: HTT sandwich ELISA, biological repeat 2
T5 construct: recombinant His- and GST-tagged fusion; also called Wild type Huntingtin (HTT) exon 1
T5 sequence (chain, as listed by the source limits assumed, change not shown): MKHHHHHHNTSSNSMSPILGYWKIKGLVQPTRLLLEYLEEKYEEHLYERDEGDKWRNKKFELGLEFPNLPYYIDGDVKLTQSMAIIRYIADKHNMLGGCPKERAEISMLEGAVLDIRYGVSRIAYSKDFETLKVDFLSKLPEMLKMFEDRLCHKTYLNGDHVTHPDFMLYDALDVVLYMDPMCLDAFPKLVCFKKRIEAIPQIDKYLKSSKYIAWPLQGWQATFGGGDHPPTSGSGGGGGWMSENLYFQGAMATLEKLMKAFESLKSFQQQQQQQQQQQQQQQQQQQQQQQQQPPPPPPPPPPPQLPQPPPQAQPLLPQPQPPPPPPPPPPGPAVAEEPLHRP

[4] = molecular target: T1, human lysozyme; assay: direct ELISA
[5] = molecular target: T5, WT Human HTT Exon 1 25Q (GST); assay: HTT sandwich ELISA, average of repeats
[6] = molecular target: T5, WT Human HTT Exon 1 25Q (GST); assay: HTT sandwich ELISA, biological repeat 3
[7] = molecular target: T2, Murine HTT antigen; assay: direct ELISA on coated murine HTT antigen
[8] = molecular target: T3, Mutant Human HTT Exon 1 48Q (GST); assay: HTT sandwich ELISA, biological repeat 3
[9] = molecular target: T3, Mutant Human HTT Exon 1 48Q (GST); assay: HTT sandwich ELISA; EC50 on HTT Exon 1 25Q over EC50 on HTT Exon 1 48Q
[10] = molecular target: T3, Mutant Human HTT Exon 1 48Q (GST); assay: HTT sandwich ELISA, biological repeat 2
[11] = molecular target: T3, Mutant Human HTT Exon 1 48Q (GST); assay: HTT sandwich ELISA, average of repeats
[12] = molecular target: T5, WT Human HTT Exon 1 25Q (GST); assay: HTT sandwich ELISA, biological repeat 1
[13] = molecular target: T5, WT Human HTT Exon 1 25Q (GST); assay: HTT sandwich ELISA, average (one repeat assessed)

Row | Binder | EC50 [1] [nM] | binding result [2] | EC50 [3] [nM] | binding result [4] | EC50 [5] [nM] | EC50 [6] [nM] | binding result [7] | EC50 [8] [nM] | Ratio of EC50 for 25Q:48Q HTT Exon 1 [9] | EC50 [10] [nM] | EC50 [11] [nM] | EC50 [12] [nM] | EC50 [13] [nM]
1 | ATL_0005895 (antibody, V domains shown, human IgG1; also called ATL_5895; ATL5895) VH: EVQLVESGGGLVKPGGSLRLSCAASGFTFNKAWMSWVRQAPGKGLEWVGRIKSGIDAGTTDYAAPVKGRFTISRDDSKNTLYLQMNSLKTEDTAVYYCIPPPYYYYYGLDVWGQGTTVTVSS VL: QSALTQPRSVSGSPGQSVTISCTGTSSDVGSYNLVSWYQQHPGKAPKLMIYEVNKRPSGVPDRFSGSKSGATASLTISGLQAEDEADYYCGSYAGTANVFGTGTKVTVL | 0.731 | no binding (tested: 2 µg/mL antibody) | 3.91 | no binding (tested: less than 1 µM) | 3.71 | 4.39 | binds | 3.2 | 1.79 | 3.83 | 2.08 | 2.97 | –
2 | ATL_0005901 (antibody, V domains shown, human IgG1; also called ATL_5901; ATL5901) VH: EVQLVESGGGLVKPGGSLRLSCAASGFTFNKAWMSWVRQAPGKGLEWVGRIKSGIDAGTTDYAAPVKGRFTISRDDSKATLYLQMNSLKTEDTAVYYCIPPPYYYYYGLDVWGQGTTVTVSS VL: QSALTQPASVSGSPGQSITISCTGTSSDVGGYKLVSWYQQHPGRAPKLMIYEVSKRPSGVSSRFSGSKSGSTASLTISGLQAEDEADYYCSSYAGSSVVFGGGTKLTVL | 1.25 | – | 4.52 | – | 4.92 | 4.73 | – | 4.59 | 2.05 | – | 2.4 | 5.59 | –
3 | ATL_0005567 (antibody, V domains shown, human IgG1; also called ATL_5567; ATL5567) VH: EVQLVESGGGLVKPGGSLRLSCAASGFTFNKAWMNWVRQAPGKGLEWVGRIKSGIDGGTTDYAAPVQGRFTISRDDSKNTVYLQMNSLNTEDTAVYYCIPPPYYYYYGLDVWGQGTTVTVSS VL: QSALTQPASVSGSPGQSITISCTGTSSDIGSYNLVSWYQQHPGNAPKPLIYEGSKRPSGVSARFSGSKSGNTASLTISGLQPEDEADYYCSSYAGFSTLVFGGGTKVTVL | 8.7 | no binding (tested: 5 µg/mL antibody) | 9.63 | – | 7.57 | 5.95 | – | 4.59 | 1.18 | 6.55 | 6.39 | – | –
4 | ATL_0005059/NI-302.8F1 (antibody, V domains shown, also called ATL_5059; CA_0000274) VH: EVQLVESGGGLVKPGGSLTISCAASGFTFSNAWMNWVRQAPGKGLEWVGHIRTQAEGGTSDYAAPVKGRFTISRDDSKNTLYLQMNSLKTEDTAVYYCIPPPYYYYYGLDVWGQGTTVTVSS VL: QSALTQPASVSGSPGQSITISCTGASSDVGTYDLVSWYQQHPGKAPKLIIYEVNKRPSGVSYRFSASKSANTASLTISGLQAEDEAEYYCCSYAGYSTVFGGGTKLTVL | 18.1 | – | 19.3 | – | – | – | – | 17.5 | 1.12 | 16.2 | 17.3 | – | 19.3

Reference: patent publication US20260209320A1 (ALCHEMAB THERAPEUTICS, published 2026)
